According to the supplement of paper PMC9732359:
± gives the uncertainty stated by the source.

Assay: protein stability index of a GFP-peptide fusion (yeast GPS) (PSI 1-4); higher = more stable; sorted into four equal gates, so the index is relative within each strain
Settings: doa10∆
Procedure, shortened: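 The protein stability index of a peptide was calculated by multiplying its read frequency in each gate by that gate's number and adding the products. The peptides were tiled 17-residue stretches of yeast proteins, fused downstream of GFP on a Cherry-expressing plasmid and carried in yeast as a pooled library. Mid-log cultures in leucine-free medium were sorted into four equal gates by GFP/Cherry ratio, and each gate's plasmids were PCR-amplified and Illumina-sequenced.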

MSNIVGIEYNRVTNTTS [RPC40] and MSQYQSTMKENKDLSEL [YIL149C/MLP2] are within error of each other in protein stability index: 3.36 ± 0.22 for the first, 3 ± 0.16 for the second.

Compared with MSRDAPIKADKDYSQIL [RPN5], MSSVQSKILSQAPSELE [RPS7B] is lower in protein stability index: 2.97 ± 0.1 for the first, 2.58 ± 0.08 for the second.

First: MSTELTVQSERAFQKQP [RPS11A]
Second: MSVPAIAPRRKRLADGL [DIS3]
The protein stability index of the first is lower: 3.13 ± 0.1 for the first, 3.37 ± 0.095 for the second.

Going from MTTFYKCVNCGHRWKEN [RPC11] to MTVKLESITYQKIMILQ [RGR1], the protein stability index falls from 2.82 ± 0.16 to 2.16 ± 0.071.

First: MTVNDQPIEKNGDKMPL [YJR042W/NUP85]
Second: MVLEATVLVIDNSEYSR [RPN10]
The protein stability index of the first is higher: 2.73 ± 0.066 for the first, 1.79 ± 0.097 for the second.

Going from MVNTQQPIVTGTSVISM [PRE4] to MVPKRSTIITKAINQEL [YCS4], the protein stability index falls from 2.1 ± 0.26 to 1.39 ± 0.1.

NAEKTGKRQVLIRPSSK [RPS22A] and NAEKTGKRQVLLRPSSK [RPS22B] are within error of each other in protein stability index: 3.28 ± 0.16 for the first, 3.14 ± 0.064 for the second.

First: NAGTDIVMEDHGVLQGT [MED1]
Second: NAKRSHMMKRWGYQMVW [POP1]
The protein stability index of the first is higher: 3.11 ± 0.072 for the first, 1.97 ± 0.052 for the second.

First: NALWILVDLVSHFSPDI [ITC1]
Second: NANTVFSERAAMFAALQ [SWI1]
The protein stability index of the first is lower: 1.55 ± 0.07 for the first, 2.31 ± 0.049 for the second.

NASDALKGRVVEVCLAD [RPS1B] and NASLTIEDEDEPFNAGI [SMC1] are within error of each other in protein stability index: 3.34 ± 0.069 for the first, 3.29 ± 0.13 for the second.

First: NATVVDSFKYEPLAPGN [YLR335W/NUP2]
Second: NCVNDVLEFCKDYEAKT [POP1]
The protein stability index of the first is lower: 2.95 ± 0.057 for the first, 3.2 ± 0.075 for the second.

Going from NDAMAGGFTAYGGADYG [RPO21] to NDDKKTEPDKPAFSFNS [YJL041W/NSP1], the protein stability index rises from 1.78 ± 0.083 to 2.89 ± 0.047.

NDENDDEFYINVDKNLN [RPN14] and NDFNDLNIDWSTTGDNG [MED2] are within error of each other in protein stability index: 2.96 ± 0.19 for the first, 2.84 ± 0.05 for the second.

NDGNNRTNNVPMIKAEE [NUT1] and NDIAGQPQALQKSGRPV [RPO21] are within error of each other in protein stability index: 3.05 ± 0.17 for the first, 2.93 ± 0.087 for the second.

First: NDITNLQLSKTPLSIKI [SRB8]
Second: NDKSEVLKVYSMINNSN [SRB8]
The protein stability index of the first is lower: 2.58 ± 0.062 for the first, 2.9 ± 0.077 for the second.

Going from NDPEILKKIASIPNLFP [SWI1] to NDWQMLEMLKPCVEDGF [RPB2], the protein stability index rises from 2.36 ± 0.049 to 2.79 ± 0.09.

NEETFTVPELEIPTQIY [ARP9] and NEIIRSLSDEVMRNEIR [SIR4] are within error of each other in protein stability index: 2.7 ± 0.065 for the first, 2.64 ± 0.058 for the second.

First: NEKMQLLKDIFANNLKS [SIR4]
Second: NELLLPSELNQLKMVNE [RPC82]
The protein stability index of the first is lower: 2.28 ± 0.048 for the first, 3.14 ± 0.12 for the second.

First: NELTDAIALAVRLGEED [RPN1]
Second: NENDSQAIITERLVEFS [YIL149C/MLP2]
The protein stability index of the first is lower: 2.98 ± 0.096 for the first, 3.2 ± 0.095 for the second.

Going from NENFRLVYDVKGRFAVH [RPS4A] to NENNNNSSEKNNNNNNN [MED2], the protein stability index falls from 3.41 ± 0.14 to 2.91 ± 0.066.

First: NENPINKIMTNQINSFW [NUT1]
Second: NENRNTGAGVDVNTNAN [SNF11]
The protein stability index of the first is lower: 2.5 ± 0.065 for the first, 3.11 ± 0.062 for the second.

First: NERRKDLAERASELDES [SMC3]
Second: NESFNRRISSMPGGYFH [YAR002W/NUP60]
The protein stability index of the first is lower: 2.13 ± 0.058 for the first, 2.88 ± 0.09 for the second.

NEVIDKLKNENTDLKDI [PCI8] and NFASGDNNTASNMLGSN [RPB3] are within error of each other in protein stability index: 2.87 ± 0.066 for the first, 3 ± 0.12 for the second.

Going from NFEYDLSEYDAIQKKDN [YOR098C/NUP1] to NFILEVFGTIIPKISDY [YJL039C/NUP192], the protein stability index falls from 2.9 ± 0.2 to 2.05 ± 0.17.

Going from NFIVHSPMLKRIKITAN [GRR1] to NFLSKIRNINVQDALLT [SNF2], the protein stability index rises from 1.48 ± 0.072 to 1.63 ± 0.047.

First: NGGEDTSVENEGPVANL [REC8]
Second: NGILPDDELMNWRRLSG [SSN2]
The protein stability index of the first is higher: 3.37 ± 0.089 for the first, 2.97 ± 0.087 for the second.

Going from NGMFCQVPSSLIVRAKN [RRP4] to NGQPLNQNFSLTFQPQQ [GRR1], the protein stability index rises from 2.07 ± 0.064 to 3.09 ± 0.051.

First: NGQYAAFVKDMQVYLVP [RPC37]
Second: NHFIFNVESAGAMTPEE [RPC40]
The protein stability index of the first is higher: 2.67 ± 0.12 for the first, 2.01 ± 0.059 for the second.

First: NHKIIARVKAFDRHCNM [SMD2]
Second: NHPELQGITRNVVNYLS [RPC17]
The protein stability index of the first is lower: 1.7 ± 0.07 for the first, 2.02 ± 0.062 for the second.

Compared with NHSNNDIPTIADEHFWA [BRN1], NHVKQFYERLDKSTTQL [MED11] is lower in protein stability index: 3.38 ± 0.099 for the first, 2.47 ± 0.061 for the second.

Compared with NHVMPLKPVDKLKPMNI [SIN4], NIDSLKFNELVKLMKNI [BRR2] is lower in protein stability index: 2.84 ± 0.1 for the first, 1.37 ± 0.04 for the second.

Compared with NIGTPSFNMAQIPQQLY [SNF5], NIIESIANFSRAGKYEL [YJR042W/NUP85] is higher in protein stability index: 1.93 ± 0.068 for the first, 2.86 ± 0.087 for the second.

Going from NIKNTNEEATPIPSSET [RRP6] to NILFSLWKLLSTVKVSD [YLR018C/POM34], the protein stability index falls from 2.61 ± 0.049 to 1.76 ± 0.07.

Going from NINNSSVAEKEEIRSQI [SWI3] to NISNNLQKALTVKTNDE [RPN8], the protein stability index rises from 2.64 ± 0.072 to 3.02 ± 0.16.

First: NISTNTNIHEPQYINYS [SSN2]
Second: NIYDQLRNKLIESNKLA [RRP6]
The protein stability index of the first is higher: 3.17 ± 0.067 for the first, 2.34 ± 0.073 for the second.

Compared with NKEMETQRIMTNVIAFA [YLR018C/POM34], NKGAKAEDVALNEQVKK [NAS6] is higher in protein stability index: 2.33 ± 0.1 for the first, 2.98 ± 0.2 for the second.

Compared with NKGRAVYINPSGEKIDF [BRR2], NKLEKLNSLLTYIKSEI [SMC4] is lower in protein stability index: 2.98 ± 0.13 for the first, 2.73 ± 0.061 for the second.

NKLNFIVDDKQEMIDIL [DIB1] gave a protein stability index of 3.37 ± 0.099.
